Results on 140 substances are retold here after the supplement of paper PMC12042874.

± gives the uncertainty stated by the source.

This data set can be described thus: amyloid nucleation score (Sup35N fusion, yeast selection) (log enrichment); library NNK1; higher = more nucleation; inactive = no reads after selection. The method, boiled down:
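Libraries of peptides of 20 random codons fused to Sup35N were expressed in psi-negative yeast and induced 24 hours with 100 μM copper sulfate. Selection was 7 days at 30°C on medium lacking adenine and uracil, and plasmid inserts were Illumina-sequenced before and after selection. Nucleation score is the DiMSum log enrichment of output over input reads, centred on the mode score of non-aggregating sequences, and sequences with under 100 input reads were left out.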
Turning to FALLFRLFRW, the amyloid nucleation score worked out at 0.539 ± 0.28.
FALVRTLTRSKSSFTTSQIK showed an amyloid nucleation score of 0.524 ± 0.47.
Consider FANLVYGQLRVNDTLVSCT, for which the amyloid nucleation score was -0.044 ± 0.33.
As for FAQECLFMSVDLCLR, the figure is 0.125 ± 1.1.
The substance FAWGREVRLEIEY yielded an amyloid nucleation score of 0.371 ± 0.31.
As for FAWSRAACFSIPVRISVSLG, the figure is 1.14 ± 0.72; as for FCIYVLFFRSVDYPLRVVEL, -0.529 ± 0.67; as for FCLMMEVGSVLRNLVPVSFR, -0.122 ± 1.4.
The value for FCQGYRLGS was 0.19 ± 0.48; that for FCSNPAGWSSWSPE was 0.182 ± 0.9.
In the case of FCTHHWG, the amyloid nucleation score is -0.382 ± 0.6.
Substance FDAMSANLESIYFSFNENMY showed an amyloid nucleation score of -0.572 ± 0.56.
As for FDATFVMLRSRAFFKICKER, the figure is 0.751 ± 0.27; as for FDIFVDLFFMGALSMRPAAQ, -0.241 ± 1.1; as for FDNLWRQYYVIGWILARAFS, -0.983 ± 0.9.
Take FDQLEGLRCASSWKLLSSPG: the amyloid nucleation score was 0.062 ± 0.8.
The value for FDVLVIFGFDTNRDACSDAL was 0.174 ± 0.38; that for FEECLM was -0.059 ± 0.44.
As for FEGAW, the figure is -0.187 ± 1; as for FEGILIKFCFGAWESDKVTM, 1.36 ± 0.59; as for FEHWCFRLPCVKDESCWD, 0.821 ± 0.8.
The value for FELGWMYSYKMAKLPWYMTC was 0.362 ± 0.99.
As for FELTVGIWQHWRT, the amyloid nucleation score stood at 0.45 ± 0.5.
The value for FERCLNPGYCINFAGCESVV was 0.581 ± 0.51.
On to FESTNVLPISGTSAGSV, for which the amyloid nucleation score came to 1.18 ± 0.74.
As for FEYCCFSYEIVLELARFRGF, the figure is -0.535 ± 1.7.
The value for FFAHNRTMSRRNQAFGF was 0.86 ± 1.1.
The value for FFCLSIHVYSG was 0.46 ± 0.97.
In the case of FFCWTCSAINLYRLLGPPMF, the amyloid nucleation score came to 5.67 ± 0.064.
The substance FFELYRVLCTNAFLWCKGYV returned an amyloid nucleation score of -0.423 ± 0.44.
As for FFHAIIWRLIYRQFPDFVG, the figure is 0.984 ± 0.43.
The value for FFIICSYR was -0.868 ± 0.37; that for FFILSFNIRIYIFEVVTFLK was 0.555 ± 0.52.
On to FFILYINSQLIREVILRRAH, for which the amyloid nucleation score is -0.128 ± 0.23.
The substance FFLAV returned an amyloid nucleation score of -0.158 ± 0.64.
As for FFLEAACYSIFGVEK, the figure is -0.612 ± 0.3; as for FFLLIFSVRGNPFFIKW, -0.153 ± 0.66; as for FFRDSHYIQRDKSQPSRGSN, -0.269 ± 1.1.
FFRMMKSLFQMRVRIDCRMG had an amyloid nucleation score of -0.653 ± 1.4.
As for FFSSNNRWRTLYNLHCSEFA, the amyloid nucleation score is 0.24 ± 0.56.
As for FFTIQMGYMALGMW, the amyloid nucleation score amounted to 1.16 ± 0.23.
Substance FFVFSSLGHLV gave an amyloid nucleation score of 0.859 ± 0.26.
As for FFWHVS, the amyloid nucleation score turned out to be 0.091 ± 0.65.
As for FGGKHFYVGGRFGLLNMCDF, the figure is -0.548 ± 2.1; as for FGGSLMASFDCTRPSSMER, -0.606 ± 1.6; as for FGIWIRGFRTYDECHPAHGC, 0.434 ± 0.41.
As for FGLHCINLNWVEKWFDIDGP, the figure is -0.245 ± 0.84; as for FGMNLILHCTPTQRTYISPV, 2.83 ± 0.092.
The value for FGNSFRSQGVSFM was 0.414 ± 0.32.
The substance FGSARGHSGY gave an amyloid nucleation score of 1.52 ± 0.18.
As for FGVEYWWSLGCVWGTLLGYN, the entry is “inactive”.
The substance FGYTVFIDFVSSGMMRFGGQ showed an amyloid nucleation score of 0.784 ± 0.48.
As for FHAWSVFFIVRCLTEVRGYL, the figure is -0.081 ± 0.34; as for FHEDKIS, 1.34 ± 0.36; as for FHGDLA, -0.57 ± 0.26.
Regarding FHICGFRYSHLGREPMKFGI, the amyloid nucleation score worked out at 2.23 ± 0.19.
For the substance FHQDFDSWF, the amyloid nucleation score is 0.362 ± 0.51.
For the substance FHSSGFVVYMLIVRGSPSMR, the amyloid nucleation score worked out at 0.218 ± 0.27.
As for FHVVSFQGETCDHRIGRIVY, the figure is 0.002 ± 0.33; as for FIAIDLS, 1.31 ± 0.45.
For the substance FIFCAGCVENNTSSPK, the amyloid nucleation score came out at 6.224 ± 0.059.
As for FIFWGDLFWV, the figure is -0.992 ± 0.32; as for FIIDYKTDKRSEFWL, 0.215 ± 0.35.
As for FIITWILTKNMKLGEVYSIS, the figure is -0.132 ± 0.72; as for FINGFGEDLKHIREVEVYLY, 4.07 ± 0.084.
As for FIQCVFHVCLRV, the figure is 4.68 ± 0.073; as for FIRASWCSRIYIKFVN, 0.587 ± 0.43.
FIRCVNSV came in with an amyloid nucleation score of -0.745 ± 2.4.
As for FIRFTICALTSKVDFI, the figure is 0.811 ± 0.74; as for FIRTRLIIYLSEDGYPVA, 1.31 ± 0.21.
As for FISPFCIVSYIIC, the figure is 5.846 ± 0.054; as for FISPLSISLHQWVLSSKYRE, 7.394 ± 0.044.
The value for FIVDLWCMLFNSILAGCVVV was -0.008 ± 0.21; that for FIVFISFSFWRVTGIR was -0.139 ± 0.59.
FIVTYSNTIRYSMPSKLPWQ registered an amyloid nucleation score of 3.26 ± 0.077.
In the case of FIWSVTYSGP, the amyloid nucleation score was found to be 1.48 ± 0.72.
The value for FKAHRMVLHGYIGSMERG was -0.186 ± 1.1; that for FKDGLCYCNSGVS was -0.452 ± 0.39.
In the case of FKEER, the amyloid nucleation score came out at 0.133 ± 1.4.
With FKGRNSFPLLDSWVIHRIGI, the amyloid nucleation score worked out at 0.422 ± 0.9.
As for FKRRKSFAHCRFAGVVRRWW, the figure is -0.581 ± 1.2; as for FKTTDHFVGVYCLLYAKKQG, -0.235 ± 0.77.
In the case of FKVNRHLPELHLCKGTEWKL, the amyloid nucleation score result is “inactive”.
The value for FLCEAFDQGNLVIIDP was -0.502 ± 0.46; that for FLDLSGMPGSVWFDIGVSCF was -0.716 ± 1; that for FLDYKTSSGHRLYLDRAKES was -0.492 ± 0.36.
The value for FLEFWPSVTVYSRCFLVFGR was -1.06 ± 1.1.
The substance FLFYRCLGVKFFVFFMIVSK yielded an amyloid nucleation score of -0.817 ± 2.4.
As for FLGGDTRIDHGTLWWSLIRQ, the amyloid nucleation score turned out to be 0.032 ± 0.35.
The value for FLIFIRFNGHCLSIGWFTLH was 0.303 ± 1; that for FLISWTIVMHVCTMTDACCR was “inactive”.
The substance FLNMASIFNFLHTNRF showed an amyloid nucleation score of 0.054 ± 1.2.
As for FLNTNEKIKMQPIFPFFLLL, the figure is -0.495 ± 0.65.
On to FLRRIGMGYIRLRVLGSIFL, for which the amyloid nucleation score was 0.854 ± 0.49.
Turning to FLRSIKWVTVVS, the amyloid nucleation score worked out at 0.51 ± 0.28.
As to FLSVASFTRI, the amyloid nucleation score is 0.246 ± 0.32.
FLSYDMLYVKLT: the amyloid nucleation score amounted to 2.44 ± 0.16.
FLVSCYPWVE had an amyloid nucleation score of 0.248 ± 0.71.
As for FLWDL, the amyloid nucleation score is 0.268 ± 0.75.
The value for FLWVTWYFSTVFYVNWALE was 0.505 ± 0.89; that for FLYGYGADPMPMSSVGRGVK was -0.864 ± 0.51.
FLYVLDSVSCQ had an amyloid nucleation score of 0.648 ± 0.69.
Substance FMELEELCSCNERGLLWTPA yielded an amyloid nucleation score of 1.6 ± 0.27.
As for FMGFISACQRMIIIMYVFRT, the figure is -0.126 ± 0.28; as for FMISRFLAMRILRTAIWRED, 0.447 ± 0.78; as for FMMCAYSLVPILLP, 0.136 ± 1.1.
As for FMNGLGPAVAYIMGYTYVSM, the figure is 6.369 ± 0.063; as for FNKVYMSSIVASKVVKMRLI, -0.476 ± 0.75; as for FNVAAVVGWMKRLIDRSRNT, 1.3 ± 0.88.
Substance FNVCLSKESVNLGRD showed an amyloid nucleation score of 0.486 ± 0.39.
On to FNYVICYSLCVVFWARRWCN, for which the amyloid nucleation score came out at 1.75 ± 0.14.
In the case of FPCSRIELVVSVCVAWVNSC, the amyloid nucleation score came out at 1.42 ± 0.28.
As for FPDELESWRTSASPRVAPMG, the figure is -0.247 ± 1.9.
Consider FPDGEYPMTYTLWELKYVFV, for which the amyloid nucleation score is -0.487 ± 0.65.
FPDYVDTTFRQIWECLWFFP: the amyloid nucleation score entry was “inactive”.
As for FPEFIVFRMRIVYIVSFRTW, the figure is 1.06 ± 0.47; as for FPLSTQ, 2.37 ± 0.43.
As for FPRLGCARTFSDHSMLACTI, the figure is 0.098 ± 0.59.
In the case of FQASSLTGPH, the amyloid nucleation score was -0.574 ± 0.36.
As for FQTFSSICYMISFLIVG, the figure is 0.928 ± 0.68; as for FRFMVLGLVSLGIGV, -0.59 ± 0.62.
The value for FRFSHRLFLWPKYFSIFKNS was 0.37 ± 0.35; that for FRGSLIFSISVIKVISVLSE was 2.11 ± 0.14.
In turn, FRGSRELNMSSQGVGACLIR registered an amyloid nucleation score of -0.399 ± 0.88.
As to FRGYSGL, the amyloid nucleation score is 1.46 ± 0.55.
For the substance FRIYLYLTCGLCSIIHYFVP, the amyloid nucleation score stood at 0.818 ± 0.25.
As for FRLRVSGVSCMR, the figure is -0.912 ± 2.4; as for FRLTGTLALKFVVELTVRR, 2.79 ± 0.26.
As for FRLVYNNFAIT, the figure is -1.78 ± 2.4.
As to FRNDGYLNSYMSRRVIIPSD, the amyloid nucleation score is -0.194 ± 0.23.
As for FRNIDTLLTVHCVSACR, the figure is -2.4 ± 2.7; as for FRNSLSYIVLSCLAMFFNDG, 0.967 ± 0.32.
With FRNTERGEFNVVYGSPGFSR, the amyloid nucleation score was 0.751 ± 0.51.
For FRPSRHNAQPMFHSKPSRAF, the amyloid nucleation score was -0.636 ± 1.1.
The value for FRRFIFFVGYGHFIFWASWL was -0.156 ± 0.68; that for FRRYLWFRDRPGFCCFRLMQ was -0.46 ± 1.5.
The value for FRSGFSLKARSVQMCDRF was 1.26 ± 0.42.
FRSSFGMTHYWEWRASSGRN returned an amyloid nucleation score of 0.882 ± 0.2.
For the substance FRVGYFAHSCRYVRSGRHMV, the amyloid nucleation score is 0.401 ± 0.26.
The value for FRVLNCVSYVFFQRHFRRCG was -0.974 ± 0.88.
